Reference: PMC6797443, “Experimental characterization of two archaeal inosine 5'-monophosphate cyclohydrolases” (PLoS ONE, 2019)

Key:
[1] = tested on: NC(=O)c1ncn([C@@H]2O[C@H](COP(=O)(O)O)[C@@H](O)[C@H]2O)c1NC=O; assay: purified protein; format: biochemical, Thermococcus kodakarensis; conditions: 0.050 M Tris, pH 7.3, 50°C, MBP fusion
[2] = tested on: NC(=O)c1ncn([C@@H]2O[C@H](COP(=O)(O)O)[C@@H](O)[C@H]2O)c1NC=O; assay: purified protein; format: biochemical, Archaeoglobus fulgidus; conditions: 0.050 M Tris, pH 7.3, 50°C, MBP fusion

TK0430 (Thermococcus kodakarensis PurO) (Thermococcus kodakarensis KOD1)
Km [1]: 1.56 ± 0.39 µM | kcat [1]: 0.48 ± 0.04 s⁻¹

AF1811 (Archaeoglobus fulgidus PurH2) (Archaeoglobus fulgidus DSM 4304)
Km [2]: 7.8 ± 1.8 µM | kcat [2]: 1.32 ± 0.14 s⁻¹
